One may read the Kd as the constant that tells how readily two partners part at equilibrium. A high value points to a looser complex.

Our source for the Kd values is publication PMC10786891, “Massively parallel profiling of RNA-targeting CRISPR-Cas13d”.

Where a chain is given by its changes, count along the chain named. Names may count otherwise.

The chains are these.
T1: EsCas13d, nuclease-dead (Eubacterium siraeum, UniProt B0MS50, R295A;H300A;R849A;H854A)
T1 sequence: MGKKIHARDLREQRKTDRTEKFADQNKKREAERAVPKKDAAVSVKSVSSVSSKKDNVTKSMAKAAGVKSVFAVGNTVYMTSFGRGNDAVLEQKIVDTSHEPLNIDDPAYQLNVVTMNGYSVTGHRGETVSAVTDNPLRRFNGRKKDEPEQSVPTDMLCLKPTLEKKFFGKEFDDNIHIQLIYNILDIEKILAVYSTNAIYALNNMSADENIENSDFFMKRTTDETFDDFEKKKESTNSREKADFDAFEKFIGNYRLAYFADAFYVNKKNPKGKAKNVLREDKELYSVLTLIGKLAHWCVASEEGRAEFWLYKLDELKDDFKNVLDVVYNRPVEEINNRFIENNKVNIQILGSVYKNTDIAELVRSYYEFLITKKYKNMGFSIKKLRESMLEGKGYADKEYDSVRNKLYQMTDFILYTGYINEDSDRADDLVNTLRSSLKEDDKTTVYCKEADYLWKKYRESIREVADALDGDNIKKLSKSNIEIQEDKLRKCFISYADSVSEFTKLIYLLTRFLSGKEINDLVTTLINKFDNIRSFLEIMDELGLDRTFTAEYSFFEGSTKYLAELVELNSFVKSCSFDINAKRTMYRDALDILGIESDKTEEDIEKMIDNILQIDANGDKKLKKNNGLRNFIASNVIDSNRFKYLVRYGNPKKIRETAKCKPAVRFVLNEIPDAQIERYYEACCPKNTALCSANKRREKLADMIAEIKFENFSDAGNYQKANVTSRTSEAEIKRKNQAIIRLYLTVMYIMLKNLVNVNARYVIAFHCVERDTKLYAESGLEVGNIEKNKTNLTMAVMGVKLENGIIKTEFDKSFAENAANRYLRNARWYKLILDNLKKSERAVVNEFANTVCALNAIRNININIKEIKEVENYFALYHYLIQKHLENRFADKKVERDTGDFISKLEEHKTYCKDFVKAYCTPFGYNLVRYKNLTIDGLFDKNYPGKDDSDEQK

B1: target 1 C2A,C6G (mixed)
RNA 1: CACCCGUGCAAAAAUGCAGGGGUCUAAAACUGAGCGGAUAACCUCUCUAUGG
RNA 2: GGGAAUGGAUCCACAUCUACGAAUUCGUACCAUAGAGAGGUUAUCGGCUAACCGAGAUCGGAAGAGCACACGU
B2: target 1 insC 3' of 18,insA 3' of 7 (mixed)
RNA 1: B1 RNA 1
RNA 2: GGGAAUGGAUCCACAUCUACGAAUUCGUACCAUACGAGAGGUUAUCACGCUCACCGAGAUCGGAAGAGCACACGU
B3: target 1 insC 3' of 13,insA 3' of 13 (mixed)
RNA 1: B1 RNA 1
RNA 2: GGGAAUGGAUCCACAUCUACGAAUUCGUACCAUAGAGAGCAGUUAUCCGCUCACCGAGAUCGGAAGAGCACACGU
B4: target 1 insU 3' of 14,insU 3' of 9 (mixed)
RNA 1: B1 RNA 1
RNA 2: B3 RNA 2 with G39U, C40G, A41G, G42U, U44A, A45U
B5: target 3 A5U,C6G (mixed)
RNA 1: CACCCGUGCAAAAUUGCAGGGGUCUAAAACGACCUGAAUAUUUCAGAUCAAA
RNA 2: GGGAAUGGAUCCACAUCUACGAAUUCGUUUUUGAUCUGAAAUAUUGUGGUCUGCAGAUCGGAAGAGCACACGU
B6: target 3 insU 3' of 6,insU 3' of 3 (mixed)
RNA 1: B5 RNA 1
RNA 2: GGGAAUGGAUCCACAUCUACGAAUUCGUUUUUGAUCUGAAAUAUUCUAGGUUCUGCAGAUCGGAAGAGCACACGU
B7: target 3 C6G (mixed)
RNA 1: B5 RNA 1
RNA 2: B5 RNA 2 with U47A
B8: target 3 insU 3' of 4,insA 3' of 4 (mixed)
RNA 1: B5 RNA 1
RNA 2: B6 RNA 2 with U47A, A48G, G49U, G50A, U51G
B9: target 3 insA 3' of 7,insC 3' of 3 (mixed)
RNA 1: B5 RNA 1
RNA 2: B6 RNA 2 with C46A, U47C, U51C
B10: target 3 insU 3' of 3,insA 3' of 1 (mixed)
RNA 1: B5 RNA 1
RNA 2: B6 RNA 2 with U47A, A48G, G50U, U52C, C53A
B11: target 3 G4U,A18G (mixed)
RNA 1: B5 RNA 1
RNA 2: B5 RNA 2 with A34G, G46C, U47A, G48U
B12: target 3 insG 3' of 6,insC 3' of 3 (mixed)
RNA 1: B5 RNA 1
RNA 2: B6 RNA 2 with U47G, U51C
B13: target 3 insA 3' of 21,insU 3' of 3 (mixed)
RNA 1: B5 RNA 1
RNA 2: GGGAAUGGAUCCACAUCUACGAAUUCGUUUUAUGAUCUGAAAUAUUCAGGUUCUGCAGAUCGGAAGAGCACACGU
B14: target 3 U7G (mixed)
RNA 1: B5 RNA 1
RNA 2: B5 RNA 2 with U45G, G46C, U47A
B15: target 3 G3C,A12G (mixed)
RNA 1: B5 RNA 1
RNA 2: B5 RNA 2 with A40G, G46C, U47A, G49C
B16: target 3 C1G,G4C (mixed)
RNA 1: B5 RNA 1
RNA 2: B5 RNA 2 with G46C, U47A, G48C, C51G
B17: target 3 C1U,G4C (mixed)
RNA 1: B5 RNA 1
RNA 2: B5 RNA 2 with G46C, U47A, G48C, C51U
B18: target 3 insU 3' of 3,insG 3' of 1 (mixed)
RNA 1: B5 RNA 1
RNA 2: B6 RNA 2 with U47A, A48G, G50U, U52C, C53G
B19: target 3 insG 3' of 7,insA 3' of 3 (mixed)
RNA 1: B5 RNA 1
RNA 2: B6 RNA 2 with C46G, U47C, U51A
B20: target 3 insA 3' of 22,insC 3' of 3 (mixed)
RNA 1: B5 RNA 1
RNA 2: B13 RNA 2 with U31A, A32U, U51C
B21: target 3 G19U,U20G (mixed)
RNA 1: B5 RNA 1
RNA 2: B5 RNA 2 with U32G, G33U, G46C, U47A
B22: target 3 insC 3' of 4,insA 3' of 4 (mixed)
RNA 1: B5 RNA 1
RNA 2: B6 RNA 2 with U47A, A48G, G49C, G50A, U51G
B23: target 3 G4C (mixed)
RNA 1: B5 RNA 1
RNA 2: B5 RNA 2 with G46C, U47A, G48C
B24: target 3 insU 3' of 3,insU 3' of 1 (mixed)
RNA 1: B5 RNA 1
RNA 2: B6 RNA 2 with U47A, A48G, G50U, U52C, C53U
B25: target 3 insG 3' of 22,insA 3' of 22 (mixed)
RNA 1: B5 RNA 1
RNA 2: GGGAAUGGAUCCACAUCUACGAAUUCGUUUGAUUGAUCUGAAAUAUUCAGGUCUGCAGAUCGGAAGAGCACACGU
B26: target 3 complement block 1-7 (mixed)
RNA 1: B5 RNA 1
RNA 2: B5 RNA 2 with U45A, G48C, G49C, U50A, C51G
B27: target 3 A9G (mixed)
RNA 1: B5 RNA 1
RNA 2: B5 RNA 2 with A43G, G46C, U47A
B28: target 3 C1U,U7A (mixed)
RNA 1: B5 RNA 1
RNA 2: B5 RNA 2 with U45A, G46C, U47A, C51U
B29: target 3 C6U,C16U (mixed)
RNA 1: B5 RNA 1
RNA 2: B5 RNA 2 with C36U, G46U, U47A
B30: target 3 del2,del5 (mixed)
RNA 1: B5 RNA 1
RNA 2: GGGAAUGGAUCCACAUCUACGAAUUCGUUUUUGAUCUGAAAUAUUCGGCUGCAGAUCGGAAGAGCACACGU
B31: target 3 C1U,U7G (mixed)
RNA 1: B5 RNA 1
RNA 2: B5 RNA 2 with U45G, G46C, U47A, C51U

The target in the data set is T1, EsCas13d, nuclease-dead. The data set is described as follows: crRNA (strand 1, pre-loaded); Mg2+; 40 mM Tris-HCl pH 7.5, 150 mM NaCl, 6 mM MgCl2, 1 mM DTT, 0.1% Tween-20, 0.2 mg/ml BSA; 25 C; 10 min per concentration, then washed. The following applies: tags: His6-TwinStrep-SUMO cleaved; N-terminal SNAP kept (SNAP-Surface 488); label: 3' end held by stalled T7 RNA polymerase.
In turn, B1 came in with a Kd of 0.00603 ± 0.00034 µM.

As to B2, binding was characterised by a dissociation constant (Kd) of 0.029 ± 0.0016 µM.

Turning to B3, binding was characterised by a dissociation constant (Kd) of 0.0172 ± 0.0016 µM.

In turn, B4 yielded a Kd of 0.052 ± 0.009 µM.

The molecule B5 gave a Kd of 0.039 ± 0.0045 µM.

B6: the Kd came to 0.0129 ± 0.002 µM.

In the case of B7, the Kd is 0.0204 ± 0.0023 µM.

Regarding B8, the Kd stood at 0.0229 ± 0.00325 µM.

As for B9, the Kd stood at 0.0261 ± 0.00235 µM.

B10: the Kd stood at 0.0765 ± 0.0195 µM.

B11 returned a Kd of 0.00975 ± 0.00145 µM.

Molecule B12 returned a Kd of 0.0175 ± 0.0013 µM.

Take B13: the affinity, expressed as Kd, was 0.0463 ± 0.0137 µM.

Turning to B14, the Kd is 0.047 ± 0.008 µM.

With B15, binding was characterised by a dissociation constant (Kd) of 0.101 ± 0.033 µM.

For the molecule B16, the Kd stood at 0.0168 ± 0.00325 µM.

B17 gave a Kd of approximately 0.0685 µM.

As to B18, the Kd amounted to 0.0374 ± 0.00485 µM.

B19 had a Kd of 0.038 ± 0.0055 µM.

As for B20, the Kd was 0.0151 ± 0.00155 µM.

Turning to B21, binding was put at a Kd of 0.0335 ± 0.007 µM.

In turn, B22 had a Kd of 0.0218 ± 0.00215 µM.

Molecule B23 came in with a Kd of 0.0106 ± 0.001 µM.

Molecule B24 came in with a Kd of 0.096 ± 0.0245 µM.

In turn, B25 came in with a Kd of 0.0415 ± 0.0045 µM.

For B26, the affinity, expressed as Kd, was 0.057 ± 0.0085 µM.

Consider B27, for which binding was characterised by a dissociation constant (Kd) of 0.0291 ± 0.00285 µM.

B28 showed a Kd of 0.0365 ± 0.0155 µM.

B29 had a Kd of 0.0845 ± 0.02 µM.

For B30, the Kd came out at 0.00535 ± 0.00045 µM.

As to B31, the Kd was approximately 0.04 µM.
